Experimental findings from the supplement of paper PMC9112550, “Optimization of the antimicrobial peptide Bac7 by deep mutational scanning” (BMC Biology, 2022) are described below.

In this data set the test system is Escherichia coli TOP10. Kind of data set: shrunken log2 fold change of peptide-encoding DNA abundance (4.5 h post-induction vs induction); higher = less antimicrobial activity (less host growth inhibition). The following applies: time post-induction: 4.5 h; library: site-saturation at positions 5, 18, 19, 20.
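Further: peptides expressed intracellularly from a pBAD plasmid library in pooled LB shake-flask culture, induced with 0.3% L-arabinose, DNA abundance read by NGS, three biological replicates, DESeq2 with apeglm shrinkage.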

Take RRIRQRPPRLPRPRPRPHAWPRP: the “shrunken log2 fold change” value was determined as 0.157.
For RRIRGRPPRLPRPRPRPNHYPRP the value was -0.416.
Next, RRIRRRPPRLPRPRPRPMHHPRP: 0.0725; RRIRLRPPRLPRPRPRPAPNPRP: 0.555.
In the case of RRIRMRPPRLPRPRPRPNVHPRP, the “shrunken log2 fold change” value is -0.333.
For RRIRQRPPRLPRPRPRPVMMPRP the value was -0.335; for RRIRWRPPRLPRPRPRPTAVPRP, 0.415; for RRIRYRPPRLPRPRPRPKMNPRP, -0.616.
Next, RRIRQRPPRLPRPRPRPRWTPRP: 0.25.
Next, RRIRHRPPRLPRPRPRPPNTPRP: -0.0573; RRIRIRPPRLPRPRPRPYNHPRP: -0.138; RRIRRRPPRLPRPRPRPHNQPRP: -0.114.
With RRIRLRPPRLPRPRPRPFCQPRP, the “shrunken log2 fold change” value is -0.078.
With RRIRGRPPRLPRPRPRPWCWPRP, the “shrunken log2 fold change” value amounted to 0.682.
Regarding RRIRTRPPRLPRPRPRPFVAPRP, the “shrunken log2 fold change” value is -0.0696.
For RRIRVRPPRLPRPRPRPTYRPRP the value was -0.594.
For RRIRWRPPRLPRPRPRPGCMPRP the value was 0.464; for RRIRARPPRLPRPRPRPDWAPRP, 0.524.
As for RRIRTRPPRLPRPRPRPGHGPRP, the “shrunken log2 fold change” value is 0.138.
Turning to RRIRRRPPRLPRPRPRPQGQPRP, the “shrunken log2 fold change” value was -0.0135.
As to RRIRCRPPRLPRPRPRPPWAPRP, the “shrunken log2 fold change” value came out at 0.317.
For RRIRNRPPRLPRPRPRPWEDPRP the value was -0.0966; for RRIRIRPPRLPRPRPRPFFCPRP, -0.106; for RRIRKRPPRLPRPRPRPKVAPRP, 1.23.
For RRIRLRPPRLPRPRPRPLFPPRP the value was -0.203; for RRIRFRPPRLPRPRPRPRPLPRP, 0.406.
Next, RRIRMRPPRLPRPRPRPMTSPRP: 0.157; RRIRERPPRLPRPRPRPFWKPRP: -0.125; RRIRMRPPRLPRPRPRPWATPRP: 0.194.
For RRIRVRPPRLPRPRPRPNKHPRP, the “shrunken log2 fold change” value is -0.189.
Next, RRIRVRPPRLPRPRPRPESFPRP: -0.0103.
RRIRTRPPRLPRPRPRPYNDPRP: the “shrunken log2 fold change” value is -0.00735.
Next, RRIRMRPPRLPRPRPRPTGPPRP: 0.388; RRIRVRPPRLPRPRPRPPFFPRP: 0.193.
For RRIRCRPPRLPRPRPRPASGPRP the value was 0.148; for RRIRVRPPRLPRPRPRPRENPRP, 0.473; for RRIRNRPPRLPRPRPRPTGWPRP, 0.355.
Consider RRIRYRPPRLPRPRPRPMKNPRP, for which the “shrunken log2 fold change” value is -0.191.
Next, RRIRCRPPRLPRPRPRPVHLPRP: 0.0885; RRIRDRPPRLPRPRPRPHYMPRP: -0.231; RRIRHRPPRLPRPRPRPMLLPRP: 0.0408.
RRIRFRPPRLPRPRPRPDSVPRP: the “shrunken log2 fold change” value is -0.54.
RRIRWRPPRLPRPRPRPNKGPRP: the “shrunken log2 fold change” value was -0.346.
Consider RRIRFRPPRLPRPRPRPCVSPRP, for which the “shrunken log2 fold change” value is -0.0323.
For RRIRTRPPRLPRPRPRPEPCPRP, the “shrunken log2 fold change” value stood at 0.0427.
For RRIRTRPPRLPRPRPRPTNEPRP the value was -0.261; for RRIRGRPPRLPRPRPRPTNSPRP, 0.319.
Take RRIRARPPRLPRPRPRPYPQPRP: the “shrunken log2 fold change” value is -0.166.
As to RRIRQRPPRLPRPRPRPTMAPRP, the “shrunken log2 fold change” value stood at 0.216.
Take RRIRQRPPRLPRPRPRPIAPPRP: the “shrunken log2 fold change” value came to 4.03.
For RRIRSRPPRLPRPRPRPQKEPRP the value was 0.052; for RRIRQRPPRLPRPRPRPMLPPRP, -0.384; for RRIRDRPPRLPRPRPRPFHFPRP, -0.208.
As for RRIRTRPPRLPRPRPRPNTWPRP, the “shrunken log2 fold change” value is -0.178.
RRIRVRPPRLPRPRPRPRWMPRP: the “shrunken log2 fold change” value was -0.0415.
Next, RRIRVRPPRLPRPRPRPPSSPRP: 0.275; RRIRQRPPRLPRPRPRPHECPRP: -0.0866; RRIRHRPPRLPRPRPRPPGGPRP: 0.443.
Regarding RRIRYRPPRLPRPRPRPHCVPRP, the “shrunken log2 fold change” value is -0.0324.
For RRIRWRPPRLPRPRPRPVWRPRP the value was 0.488; for RRIRSRPPRLPRPRPRPNSSPRP, -0.31.
For RRIRHRPPRLPRPRPRPEGDPRP the value was 0.383.
Next, RRIRWRPPRLPRPRPRPCVWPRP: 0.738.
Turning to RRIRSRPPRLPRPRPRPFALPRP, the “shrunken log2 fold change” value was -0.0971.
As to RRIRWRPPRLPRPRPRPPYVPRP, the “shrunken log2 fold change” value is -0.284.
Next, RRIRNRPPRLPRPRPRPQQIPRP: -0.23; RRIRIRPPRLPRPRPRPTDWPRP: 0.0724.
Consider RRIRKRPPRLPRPRPRPLRLPRP, for which the “shrunken log2 fold change” value was found to be 1.16.
Next, RRIRARPPRLPRPRPRPQMSPRP: 0.0835; RRIRWRPPRLPRPRPRPANPPRP: 0.165; RRIRHRPPRLPRPRPRPQCSPRP: -0.0894.
Next, RRIRHRPPRLPRPRPRPSHAPRP: 0.0238; RRIRLRPPRLPRPRPRPRRKPRP: -0.00224; RRIRPRPPRLPRPRPRPDTHPRP: -0.119.
As to RRIRGRPPRLPRPRPRPDPEPRP, the “shrunken log2 fold change” value came out at 0.593.
Consider RRIRPRPPRLPRPRPRPEQEPRP, for which the “shrunken log2 fold change” value stood at 0.278.
For the sequence RRIRMRPPRLPRPRPRPWLAPRP, the “shrunken log2 fold change” value stood at 0.0737.
Next, RRIRPRPPRLPRPRPRPVGDPRP: 0.365; RRIRFRPPRLPRPRPRPPHRPRP: 0.324.
With RRIRFRPPRLPRPRPRPETGPRP, the “shrunken log2 fold change” value amounted to 0.0907.
Next, RRIRMRPPRLPRPRPRPRMKPRP: 0.447; RRIRNRPPRLPRPRPRPHARPRP: 0.187; RRIRARPPRLPRPRPRPYIVPRP: -0.882.
For RRIRDRPPRLPRPRPRPNWGPRP, the “shrunken log2 fold change” value came to 0.061.
Regarding RRIRYRPPRLPRPRPRPISMPRP, the “shrunken log2 fold change” value came to 0.0342.
Next, RRIRSRPPRLPRPRPRPQQWPRP: -0.175.
Regarding RRIRVRPPRLPRPRPRPVGCPRP, the “shrunken log2 fold change” value turned out to be 0.417.
Next, RRIRLRPPRLPRPRPRPPFNPRP: -0.116.
For RRIRARPPRLPRPRPRPYPKPRP the value was -0.149; for RRIRKRPPRLPRPRPRPDFVPRP, 0.0472; for RRIRHRPPRLPRPRPRPRMTPRP, 0.19.
